Measured values taken from US20210063414A1, “METHODS FOR PREVENTING AND/OR TREATING BONE LOSS CONDITIONS BY MODULATING IRISIN” (Dana-Farber Cancer Institute, Inc., priority 2018, published 2021).

Key:
[1] = biological target: T1, integrin αV/β5 (Homo sapiens, UniProt P06756+P18084); test: FAK phosphorylation in HEK293T cells with forced expression of integrin αV/β5; type: cell-based; details: HEK293T with integrin αV/β5, vitronectin-coated plates
T1 construct: expressed in transfected cells; host or cells: HEK293T
Method: 100 nM irisin was incubated with 5 nM indicated his-tag integrins followed by immunoprecipitation using Ni-NTA agaroses. Precipitated integrins and co-precipitated irisin were analyzed by immunoblot analysis. […] HEK293T cells were seeded and incubated until 50% cell density. The cells were transfected with 0.1 μg plasmids of indicated integrins. After 48 hours, the cells were incubated with Freestyle293 medium for 3 hours and were treated with indicated concentration of irisin for 5 minutes. Cells were lysed to detect the indicated protein level using immunoblot analysis. […] MLO-Y4 cells were treated as described in FIG. 2D with addition of pretreatment of indicated antagonistic antibodies for 10 minutes. Cells were lysed to detect the indicated protein level using immunoblot analysis. […] MLO-Y4 cells were treated as described in FIG. 1B except with addition of the pretreatment of indicated antagonistic antibodies for 10 minutes. Sclerostin mRNA level was analyzed by qRT-PCR. Cyclophilin was used for house-keeping gene. […] The ribbon diagram is colored by HDX stabilization/destabilization. Percentages of deuterium differences are color-coded according to the smooth color gradient key at the bottom. Crystal structure of irisin dimer is from Protein Data Bank (PDB) (4 lsd) and a homology model of integrin β5 was built based on integrin β3 structure from PDB (4MMX).
100 nM irisin was incubated with 5 nM indicated his-tag integrins followed by immunoprecipitation using Ni-NTA agaroses. Precipitated integrins and co-precipitated irisin were analyzed by immunoblot analysis. […] HEK293T cells were seeded and incubated until 50% cell density. The cells were transfected with 0.1 μg plasmids of indicated integrins. After 48 hours, the cells were re-split to indicated dose of vitronectin-coated plates. Cells were incubated with culture medium for 3 hours. Cells were lysed to detect the indicated protein level using immunoblot analysis. FIG. 15C and FIG. 15D show the immunoblot data. Cells were treated and analyzed as FIG. 14B except using plasmids encoding integrin α5/β1 or integrin α11/β1 (FIG. 15C) integrin αV/β1(FIG. 15D).
MLO-Y4 cells were treated and analyzed as described in FIG. 5A with addition of pretreatment of control RGD peptide, cyclo RGDyK (cRGDyK), or SB273005. […] HEK293 cells were treated and analyzed as described in FIG. 14B except the treatment of different dose of cyclo RGDyK. […] 8 weeks old male mice were treated and analyzed as described in FIG. 5D except the additional group with co-injection of 1 mg/kg SB273005. […]
(§1) Cells were harvested in RIPA buffer containing protease-inhibitor cocktail and phosphataseinhibitor cocktail. […] Protein levels were analyzed via western blot using indicated antibody. […]

[2] = biological target: T2, integrin αV/β3 (Homo sapiens, UniProt P05106+P06756); test: FAK phosphorylation in HEK293T cells with forced expression of integrin αV/β3; type: cell-based; details: HEK293T with integrin αV/β3, vitronectin-coated plates
T2 construct: expressed in transfected cells; host or cells: HEK293T
Method: 100 nM irisin was incubated with 5 nM indicated his-tag integrins followed by immunoprecipitation using Ni-NTA agaroses. Precipitated integrins and co-precipitated irisin were analyzed by immunoblot analysis. […] HEK293T cells were seeded and incubated until 50% cell density. The cells were transfected with 0.1 μg plasmids of indicated integrins. After 48 hours, the cells were incubated with Freestyle293 medium for 3 hours and were treated with indicated concentration of irisin for 5 minutes. Cells were lysed to detect the indicated protein level using immunoblot analysis. […] MLO-Y4 cells were treated as described in FIG. 2D with addition of pretreatment of indicated antagonistic antibodies for 10 minutes. Cells were lysed to detect the indicated protein level using immunoblot analysis. […] Sclerostin mRNA level was analyzed by qRT-PCR. […]
100 nM irisin was incubated with 5 nM indicated his-tag integrins followed by immunoprecipitation using Ni-NTA agaroses. Precipitated integrins and co-precipitated irisin were analyzed by immunoblot analysis. […] Cells were treated and analyzed as FIG. 14B except using plasmids encoding integrin α5/β1 or integrin α11/β1 (FIG. 15C) integrin αV/β1(FIG. 15D). […]
as §1

T1 sequence (P06756 31-889 limits assumed): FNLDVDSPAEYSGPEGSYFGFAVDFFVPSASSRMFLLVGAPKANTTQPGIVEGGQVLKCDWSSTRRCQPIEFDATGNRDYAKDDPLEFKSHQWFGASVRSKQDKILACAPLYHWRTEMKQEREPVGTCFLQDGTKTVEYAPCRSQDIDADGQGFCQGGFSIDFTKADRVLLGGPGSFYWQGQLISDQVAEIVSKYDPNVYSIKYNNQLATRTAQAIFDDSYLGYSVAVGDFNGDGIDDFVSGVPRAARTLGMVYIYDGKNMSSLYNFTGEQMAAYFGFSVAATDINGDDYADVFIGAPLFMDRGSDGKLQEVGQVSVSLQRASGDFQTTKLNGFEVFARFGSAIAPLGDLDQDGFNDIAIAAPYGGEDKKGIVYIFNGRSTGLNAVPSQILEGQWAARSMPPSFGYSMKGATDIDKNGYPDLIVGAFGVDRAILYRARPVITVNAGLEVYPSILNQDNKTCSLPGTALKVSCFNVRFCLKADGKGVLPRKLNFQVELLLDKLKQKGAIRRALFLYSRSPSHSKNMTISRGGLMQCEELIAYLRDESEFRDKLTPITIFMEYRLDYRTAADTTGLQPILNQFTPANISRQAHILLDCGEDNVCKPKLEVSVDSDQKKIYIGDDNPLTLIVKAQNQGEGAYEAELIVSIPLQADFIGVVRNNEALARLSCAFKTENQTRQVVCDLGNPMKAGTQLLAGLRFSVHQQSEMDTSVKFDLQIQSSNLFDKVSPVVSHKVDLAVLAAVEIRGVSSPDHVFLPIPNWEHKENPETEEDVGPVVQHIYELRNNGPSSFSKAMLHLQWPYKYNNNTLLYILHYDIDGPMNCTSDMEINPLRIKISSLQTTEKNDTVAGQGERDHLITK
T1 sequence (P06756 891-1048 partner limits assumed): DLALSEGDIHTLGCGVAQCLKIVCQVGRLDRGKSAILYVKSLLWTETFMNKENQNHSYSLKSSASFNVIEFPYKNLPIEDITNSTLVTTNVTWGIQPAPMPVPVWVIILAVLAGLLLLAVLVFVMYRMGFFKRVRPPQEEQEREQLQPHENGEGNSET
T1 sequence (P18084 24-799): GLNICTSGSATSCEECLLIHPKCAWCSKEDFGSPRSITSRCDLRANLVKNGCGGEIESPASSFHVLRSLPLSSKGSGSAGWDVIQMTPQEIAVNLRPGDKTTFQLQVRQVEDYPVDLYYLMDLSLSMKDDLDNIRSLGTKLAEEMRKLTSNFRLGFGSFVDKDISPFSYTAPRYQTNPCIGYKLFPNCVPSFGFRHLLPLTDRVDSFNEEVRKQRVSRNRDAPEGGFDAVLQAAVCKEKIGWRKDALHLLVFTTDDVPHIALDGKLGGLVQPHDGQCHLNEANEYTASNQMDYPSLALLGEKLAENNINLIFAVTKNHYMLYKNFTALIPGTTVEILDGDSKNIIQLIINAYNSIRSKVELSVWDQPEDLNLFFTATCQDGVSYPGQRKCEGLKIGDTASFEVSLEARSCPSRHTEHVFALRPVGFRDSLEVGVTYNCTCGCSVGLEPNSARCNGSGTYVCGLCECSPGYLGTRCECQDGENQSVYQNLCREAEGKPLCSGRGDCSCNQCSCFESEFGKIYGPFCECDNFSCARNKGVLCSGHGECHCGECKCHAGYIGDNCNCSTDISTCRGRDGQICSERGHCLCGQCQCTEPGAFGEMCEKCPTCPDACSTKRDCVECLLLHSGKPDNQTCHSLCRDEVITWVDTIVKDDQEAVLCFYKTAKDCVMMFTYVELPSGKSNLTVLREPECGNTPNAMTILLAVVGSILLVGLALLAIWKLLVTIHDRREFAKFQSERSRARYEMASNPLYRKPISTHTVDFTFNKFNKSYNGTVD
T2 sequence (P06756 31-889 limits assumed): as the sequence (P06756 31-889 limits assumed) above
T2 sequence (P06756 891-1048 partner limits assumed): as the sequence (P06756 891-1048 partner limits assumed) above
T2 sequence (P05106 27-788): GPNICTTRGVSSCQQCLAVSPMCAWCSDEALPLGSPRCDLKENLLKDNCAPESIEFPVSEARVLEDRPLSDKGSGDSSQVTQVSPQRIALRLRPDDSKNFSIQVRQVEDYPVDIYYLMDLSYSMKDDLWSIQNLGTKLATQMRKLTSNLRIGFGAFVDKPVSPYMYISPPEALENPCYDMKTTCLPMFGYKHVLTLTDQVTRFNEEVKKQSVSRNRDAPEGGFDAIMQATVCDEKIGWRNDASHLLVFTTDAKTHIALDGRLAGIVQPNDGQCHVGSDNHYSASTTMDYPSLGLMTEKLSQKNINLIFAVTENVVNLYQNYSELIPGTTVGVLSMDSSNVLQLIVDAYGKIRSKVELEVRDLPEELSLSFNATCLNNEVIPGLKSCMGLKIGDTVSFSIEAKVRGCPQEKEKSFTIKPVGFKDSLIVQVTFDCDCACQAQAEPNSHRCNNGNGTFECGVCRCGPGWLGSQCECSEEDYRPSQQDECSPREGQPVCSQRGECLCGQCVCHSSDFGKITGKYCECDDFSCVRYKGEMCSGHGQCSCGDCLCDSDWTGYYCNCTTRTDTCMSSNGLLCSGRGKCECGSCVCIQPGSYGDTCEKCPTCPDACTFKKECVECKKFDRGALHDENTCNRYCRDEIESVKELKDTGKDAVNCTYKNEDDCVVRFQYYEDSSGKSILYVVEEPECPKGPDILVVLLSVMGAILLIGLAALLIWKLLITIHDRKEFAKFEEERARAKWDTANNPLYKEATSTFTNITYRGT

Vitronectin: a ligand for integrin αV family, positive control [reference compound]
phosphorylation of FAK (positive control) [1]: induced phosphorylation of FAK
phosphorylation of FAK (positive control) [2]: induced phosphorylation of FAK
